As a reminder, the IC50 is the point on the concentration scale where inhibition reaches its midpoint. The term EC50 denotes the concentration giving half of the maximal effect. Low readings indicate an effect from little substance, high ones a need for much substance.

Numbering of substitutions follows the chain as printed.

Sequences and labels used below:
B1: h011-3050 (antibody, V domains shown)
VH: QVQLVQSGAEVKKPGASVKVSCKASGYTFTGYTIHWVRQAPGQGLEWMGEILPSSTYTKFNQKFKDRVTMTRDTSISTAYMELSRLRSDDTAVYYCARERIYSNYWFFDVWGQGTTVTVSS
VL: DIVMTQSPSSLSASVGDRVTITCKASQNVYTAVAWYQQKPGKSPKLLIYSASNRYTGVPSRFSGSGSGTDFTLTISSLQPEDFATYFCQQYSSYPYTFGGGTKVEIK
B2: h011-3147 (antibody, V domains shown)
VH: B1 VH with L52I
VL: B1 VL
B3: h011-3111 (antibody, V domains shown)
VH: B1 VH with E50Y, L52N
VL: B1 VL with T31W, A32E, A34D
B4: h011-3190 (antibody, V domains shown)
VH: B1 VH with L52N
VL: B1 VL
B5: h011-3065 (antibody, V domains shown)
VH: B1 VH with T33D, E50Y, L52N
VL: B1 VL
B6: h011-3174 (antibody, V domains shown)
VH: B1 VH with E50Y, L52N, Y102F
VL: B1 VL with S50Q
B7: h011-3093 (antibody, V domains shown)
VH: B1 VH with E50Y, L52N
VL: B1 VL with S50E, A51M, S52V
B8: h011-3187 (antibody, V domains shown)
VH: B1 VH with E50Y, L52N
VL: B1 VL with Y91L, Y94S, Y96E
B9: h011-3073 (antibody, V domains shown)
VH: B1 VH with E50Y, L52N, R100N, Y102F, V110R
VL: B1 VL
B10: h011-3120 (antibody, V domains shown)
VH: B1 VH with E50Y, L52N
VL: B1 VL with Y91F, S93W, Y94F
B11: h011-3058 (antibody, V domains shown)
VH: B1 VH with L52N, S55G
VL: B1 VL
B12: h011-3133 (antibody, V domains shown)
VH: B1 VH with T33E, E50Y, L52N, S55A
VL: B1 VL
B13: h011-3118 (antibody, V domains shown)
VH: B1 VH with E50Y, L52N
VL: B1 VL with T31W, A32E, A34V
B14: h011-3070 (antibody, V domains shown)
VH: B1 VH with E50Y, L52N, R100N, S103F, V110R
VL: B1 VL
B15: h011-3095 (antibody, V domains shown)
VH: B1 VH with E50Y, L52N
VL: B1 VL with S50E
B16: h011-3121 (antibody, V domains shown)
VH: B1 VH with E50Y, L52N
VL: B1 VL with Y91L, Y94Q, Y96E
B17: h011-3181 (antibody, V domains shown)
VH: B1 VH with E50Y, L52N
VL: B1 VL with Y91L, Y96D

In the first assay the target is T1, PCSK9 D374Y mutant protein inserted with biotin receiving peptide BP15 and His-tag: PCSK9-D374Y-BP15-His6 (human, UniProt Q8NBP7 153-692; A8T644 31-152, biotin on the BP15 biotin receiving peptide).
T1 construct: also called PCSK9-Y; mutant PCSK9
Kind of assay: competition ELISA, LDLR-FC coated, biotin PCSK9-Y + antibody. As to the method: The blocking ability of PCSK9 antibodies according to the present invention for the binding of LDLR-FC and PCSK9-Y (mutant PCSK9, SEQ ID NO: 6) was tested by measuring the amount of PCSK9-Y binding to LDLR in the presence of the antibodies.
(§1) LDLR-FC (produced in-house, with sequence of SEQ ID NO: 8) was diluted to 2 μg/ml with phosphate buffer and was added into the 96-well ELISA plate, at 4° C. overnight. The plate was washed and then blocked with Tris buffer (including 0.9 mM CaCl₂, 0.05% Tween 20 and 5% skim milk) at 37° C. for 2 hours. Then the plate was washed and 100 μl/well of mixture of biotin-labeled mutant PCSK9 (diluted to 1 μg/ml with Tris buffer containing 0.9 mM CaCl₂, 0.05% Tween 20 and 1% skim milk) and antibody samples (diluted with Tris buffer containing 0.9 mM CaCl₂, 0.05% Tween 20 and 1% skim milk) was added and incubated at 37° C. for 1 hour. Then the plate was washed again and horseradish peroxidase-streptavidin (sigma, CAT #S2438) was added and incubated at 37° C. for 1 hour. Then the plate was washed and tetramethyl brenzidine solution was added for development. Finally, the stop buffer was added and OD450 value was measured on the Microplate reader, then IC50 value was calculated.
As to B1, the half-maximal inhibitory concentration (IC50) was found to be 0.123 µg/mL.
Still for that read-out and setting: in the case of B2 it was 0.173 µg/mL; in that of B3, 0.226 µg/mL; in that of B4, 0.222 µg/mL.
Consider B5, for which the IC50 came out at 0.312 µg/mL.
Regarding B6, the IC50 was 0.23 µg/mL.
The same measure, in the same setting: in the case of B7 it was 0.287 µg/mL; in that of B8, 0.156 µg/mL.
For the molecule B9, the IC50 is 0.129 µg/mL.
Same read-out and setting: with B10 the figure was 0.213 µg/mL.
The same measure, in the same setting: with B11 the figure was 0.162 µg/mL.
Still for that read-out and setting: with B12 the figure was 0.175 µg/mL.
Consider B13, for which the IC50 was determined as 0.23 µg/mL.
Still for that read-out and setting: with B14 the figure was 0.228 µg/mL.
Still for that read-out and setting: with B15 the figure was 0.391 µg/mL.
The same measure, in the same setting: with B16 the figure was 0.174 µg/mL; with B17, 0.233 µg/mL.

Another assay has as its target T1, PCSK9 D374Y mutant protein inserted …. Nature of the assay: ELISA, biotin PCSK9-Y on streptavidin plate. As to the method:
The binding ability of anti-PCSK9 antibodies of the present invention to PCSK9-Y protein (mutant PCSK9, SEQ ID NO: 6) was detected by measuring the amounts of antibodies binding to PCSK9-Y immobilized on the ELISA plate.
Streptavidin (sigma, CAT #S4762) was diluted to 2 μg/ml with PBS and was added into a 96-well ELISA plate, at 4° C. for overnight. The plate was washed and then was blocked with Tris buffer (including 0.9 mM CaCl₂, 0.05% Tween 20 and 5% skim milk) at 37° C. for 2 hours. The plate was washed and 100 μl/well of biotin-labeled PCSK9-Y (produced in-house, diluted with Tris buffer containing 0.9 mM CaCl₂, 0.05% Tween 20 and 1% skim milk) was added and incubated at 37° C. for 1 hour. After the wash step, various concentrations of diluted PCSK9 antibody samples were added to the plate and incubated at 37° C. for 1 hour. […] Then the plate was washed and tetramethyl brenzidine solution was added for development. Finally, the stop buffer was added and the OD450 value was measured on the Microplate reader, and then EC50 was calculated.
Background: An ELISA detects its analyte on a solid surface through an enzyme-linked reagent.
As for B1, it took 0.00525 µg/mL to reach a half-maximal effect (EC50).
As to B2, the EC50 worked out at 0.00668 µg/mL.
Still for that read-out and setting: with B3 the figure was 0.00681 µg/mL.
The same measure, in the same setting: in the case of B4 it was 0.00478 µg/mL; in that of B5, 0.0109 µg/mL; in that of B6, 0.0112 µg/mL.
The same measure, in the same setting: in the case of B7 it was 0.00989 µg/mL; in that of B8, 0.00704 µg/mL.
In turn, B9 showed an EC50 of 0.0123 µg/mL.
The same measure, in the same setting: in the case of B10 it was 0.00711 µg/mL.
Same read-out and setting: with B11 the figure was 0.00606 µg/mL.
On the same count and under the same terms, in the case of B12 it was 0.00492 µg/mL; in that of B13, 0.00851 µg/mL; in that of B14, 0.0144 µg/mL.
B15 showed an EC50 of 0.0132 µg/mL.
Molecule B16 gave an EC50 of 0.00695 µg/mL.
For B17, the response was half-maximal at 0.00678 µg/mL (EC50).

The target of another assay is T2, PCSK9 protein inserted with biotin receiving peptide BP15 and His-tag: PCSK9-BP15-His6 (human, UniProt Q8NBP7 153-692; A8T644 31-152, biotin on the BP15 biotin receiving peptide (labeled during the expression)).
T2 construct: also called WT PCSK9; PCSK9 WT
Nature of the assay: ELISA, biotin PCSK9 on streptavidin plate. As to the method: The binding ability of anti-PCSK9 antibodies of the present invention to PCSK9 protein (WT PCSK9, SEQ ID NO: 5) was detected by measuring the amounts of antibodies binding to PCSK9 immobilized on the ELISA plate.
Streptavidin (sigma, CAT #S4762) was diluted to 2 μg/ml with PBS and was added into a 96-well ELISA plate, at 4° C. for overnight. The plate was washed and then was blocked with Tris buffer (including 0.9 mM CaCl₂, 0.05% Tween 20 and 5% skim milk) at 37° C. for 2 hours. Then the plate was washed again and 100 μl/well of biotin-labeled PCSK9 (produced in-house, diluted with Tris buffer containing 0.9 mM CaCl₂, 0.05% Tween 20 and 1% skim milk) was added and incubated at 37° C. for 1 hour. After the wash step various concentrations of diluted PCSK9 antibody samples was added to the plate and incubated at 37° C. for 1 hour. […] Then the plate was washed and tetramethyl brenzidine solution was added for development. Finally, the stop buffer was added and the OD450 value was measured on the Microplate reader, and then EC50 was calculated.
On to B1, for which the EC50 worked out at 0.00312 µg/mL.
Still for that read-out and setting: with B2 the figure was 0.00483 µg/mL; with B3, 0.00498 µg/mL; with B4, 0.005 µg/mL.
On the same count and under the same terms, in the case of B5 it was 0.00539 µg/mL.
The same measure, in the same setting: with B6 the figure was 0.00529 µg/mL; with B7, 0.00381 µg/mL.
In turn, B8 yielded an EC50 of 0.0045 µg/mL.
In the case of B9, a half-maximal effect (EC50) was put at 0.00389 µg/mL.
On the same count and under the same terms, in the case of B10 it was 0.00538 µg/mL; in that of B11, 0.00369 µg/mL; in that of B12, 0.00435 µg/mL.
Same read-out and setting: in the case of B13 it was 0.00351 µg/mL; in that of B14, 0.00511 µg/mL.
Regarding B15, the EC50 amounted to 0.00441 µg/mL.
The same measure, in the same setting: in the case of B16 it was 0.00378 µg/mL.
On the same count and under the same terms, in the case of B17 it was 0.00221 µg/mL.

Another assay has as its target T2, PCSK9 protein inserted with biotin …. Kind of assay: competition ELISA, LDLR-FC coated, biotin PCSK9 + antibody. As to the method:
The blocking ability of PCSK9 antibodies according to the present invention for the binding of LDLR-FC (produced in-house, with sequence of SEQ ID NO: 8) and PCSK9 (SEQ ID NO: 5) was tested by measuring the amount of PCSK9 binding to LDLR in the presence of the antibodies.
as §1, with “LDLR-FC” for “LDLR-FC (produced in-house, with sequence of SEQ ID NO: 8)”, “to 5” for “to 2”, “plate, kept” for “plate,”, “biotin-labeled” for “biotin-labeled mutant”, “to 2” for “to 1”
In the case of B1, the IC50 stood at 0.598 µg/mL.
In the case of B2, the IC50 is 0.567 µg/mL.
Still for that read-out and setting: in the case of B3 it was 1.22 µg/mL; in that of B4, 0.837 µg/mL; in that of B5, 0.73 µg/mL.
Still for that read-out and setting: with B6 the figure was 1.67 µg/mL.
Same read-out and setting: with B7 the figure was 0.706 µg/mL.
Regarding B8, the 50% inhibitory concentration (IC50) was found to be 0.666 µg/mL.
B9: the IC50 was found to be 0.604 µg/mL.
On the same count and under the same terms, with B10 the figure was 0.911 µg/mL; with B11, 0.542 µg/mL; with B12, 0.495 µg/mL.
On the same count and under the same terms, in the case of B13 it was 1.04 µg/mL; in that of B14, 0.629 µg/mL; in that of B15, 0.582 µg/mL.
The same measure, in the same setting: with B16 the figure was 0.662 µg/mL.
For the molecule B17, the IC50 is 0.857 µg/mL.

Source of the values: patent publication US20200270365A1 (JIANGSU HENGRUI MEDICINE, published 2020).
